Test results taken from paper PMC4273445 (eLife, 2014).

Experiments:
Test in all cases: SPR
[1] = target: fHbp V3.28 Leu (at V1 Leu156) to Ala (N. meningitidis)
[2] = target: fHbp V1.1 Val149 to Ala (N. meningitidis)
[3] = target: fHbp V2.21 Lys (at V1 Lys268) to Ala (N. meningitidis)
[4] = target: fHbp V1.1 His313 to Ala (N. meningitidis)
[5] = target: fHbp V3.28 Ser (at V1 Gln193) to Ala (N. meningitidis)
[6] = target: fHbp V2.21 Ile (at V1 Ser185) to Ala (N. meningitidis)
[7] = target: fHbp V3.28 Phe (at V1 Phe292) to Ala (N. meningitidis)
[8] = target: fHbp V2.21 Thr (at V1 Glu304) to Ala (N. meningitidis)
[9] = target: fHbp 2.P25 (N. meningitidis) (UniProt E6MV22)
[10] = target: fHbp V2.21 Val (at V1 Val149) to Ala (N. meningitidis)
[11] = target: fHbp V2.21 Val (at V1 Ile311) to Ala (N. meningitidis)
[12] = target: fHbp V3.28 Val (at V1 Leu171) to Ala (N. meningitidis)
[13] = target: fHbp V1.1 Ile179 to Ala (N. meningitidis)
[14] = target: fHbp V3.28 Val (at V1 Ile311) to Ala (N. meningitidis)
[15] = target: fHbp V1.1 Glu183 to Ala (N. meningitidis)
[16] = target: fHbp V3.28 Ile (at V1 Ile147) to Ala (N. meningitidis)
[17] = target: fHbp 1.P9 (N. meningitidis) (UniProt E6MV22)
[18] = target: fHbp V3.28 Lys (at V1 Lys306) to Ala (N. meningitidis)
[19] = target: fHbp V3.28 Asp (at V1 Asp150) to Ala (N. meningitidis)
[20] = target: fHbp V1.1 Lys191 to Ala (N. meningitidis)
[21] = target: fHbp V2.21 Ile (at V1 Ile154) to Ala (N. meningitidis)
[22] = target: fHbp V3.28 Leu (at V1 Phe174) to Ala (N. meningitidis)
[23] = target: fHbp V2.21 Ile (at V1 Ile179) to Ala (N. meningitidis)
[24] = target: fHbp 2.P19 (N. meningitidis) (UniProt E6MV22)
[25] = target: fHbp V2.21 Glu (at V1 Glu157) to Ala (N. meningitidis)
[26] = target: fHbp 3.P47 (N. meningitidis) (UniProt E6MV22)
[27] = target: fHbp V2.21 Ser (at V1 Gln193) to Ala (N. meningitidis)
[28] = target: fHbp V1.1 His248 to Ala (N. meningitidis)
[29] = target: fHbp V1.1 Pro265 to Ala (N. meningitidis)
[30] = target: fHbp V3.28 Val (at V1 Val149) to Ala (N. meningitidis)
[31] = target: fHbp V2.21 Leu (at V1 Ser274) to Ala (N. meningitidis)
[32] = target: fHbp V3.28 Ala (at V1 Glu157) to Glu (N. meningitidis)
[33] = target: fHbp V1.1 Ile196 to Ala (N. meningitidis)
[34] = target: fHbp V2.21 His (at V1 Ser288) to Ala (N. meningitidis)
[35] = target: fHbp V2.21 Leu (at V1 Phe174) to Ala (N. meningitidis)
[36] = target: fHbp V2.21 Lys (at V1 Lys107) to Ala (N. meningitidis)
[37] = target: fHbp V1.1 Asp181 to Ala (N. meningitidis)
[38] = target: fHbp V1.1 Lys92 to Ala (N. meningitidis)
[39] = target: fHbp V3.28 Lys (at V1 Lys264) to Ala (N. meningitidis)
[40] = target: fHbp 3.P30 (N. meningitidis) (UniProt E6MV22)
[41] = target: fHbp V1.1 Leu171 to Ala (N. meningitidis)
[42] = target: fHbp V3.28 Thr (at V1 Glu304) to Ala (N. meningitidis)
[43] = target: fHbp V1.1 Ser182 to Ala (N. meningitidis)
[44] = target: fHbp V1.1 Lys264 to Ala (N. meningitidis)
[45] = target: fHbp V2.21 Asp (at V1 Glu183) to Ala (N. meningitidis)
[46] = target: fHbp V3.28 Leu (at V1 Ile199) to Ala (N. meningitidis)
[47] = target: fHbp 2.P16 (N. meningitidis) (UniProt E6MV22)
[48] = target: fHbp V2.21 Glu (at V1 Glu283) to Ala (N. meningitidis)

Chain of CFH67, CCP domains 6 and 7 of complement factor H (P08603 321-443): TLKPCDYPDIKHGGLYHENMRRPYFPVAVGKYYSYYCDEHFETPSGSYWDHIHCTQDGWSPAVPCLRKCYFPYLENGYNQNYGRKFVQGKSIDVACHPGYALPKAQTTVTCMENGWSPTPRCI

CFHR3_(12), the first two (N-terminal) CCP domains of complement factor H-related 3 (from UniProt Q02985 19-330) (domain or fragment)
Kd [1]: 51.9 nM | Kd [2]: 6540 nM | Kd [3]: 3.25 nM | Kd [4]: 50.5 nM | Kd [5]: 3.03 nM | Kd [6]: 6.48 nM | Kd [7]: 2.91 nM | Kd [8]: 16.3 nM | Kd [9]: 1.61 nM | Kd [10]: 5.82 nM | Kd [11]: 9.68 nM | Kd [12]: 3.81 nM | Kd [13]: 1270 nM | Kd [14]: 36.3 nM | Kd [15]: 81 nM | Kd [16]: 17.9 nM | Kd [17]: 41.1 nM | Kd [18]: 9.34 nM | Kd [19]: 3.77 nM | Kd [20]: 91 nM | Kd [21]: 14.8 nM | Kd [22]: 4.78 nM | Kd [23]: 7.84 nM | Kd [24]: 2.11 nM | Kd [25]: 2.74 nM | Kd [26]: 1.64 nM | Kd [27]: 3.38 nM | Kd [28]: 82.5 nM | Kd [29]: 130 nM | Kd [30]: 8.28 nM | Kd [31]: 17.8 nM | Kd [32]: 4.35 nM | Kd [33]: 35.2 nM | Kd [34]: 7.63 nM | Kd [35]: 3.44 nM | Kd [36]: 4.47 nM | Kd [37]: 52.5 nM | Kd [38]: 71.9 nM | Kd [39]: 29.2 nM | Kd [40]: 2.93 nM | Kd [41]: 724 nM | Kd [42]: 17.5 nM | Kd [43]: 83.7 nM | Kd [44]: 589 nM | Kd [45]: 4.45 nM | Kd [46]: 34.6 nM | Kd [47]: 3.74 nM | Kd [48]: 22.6 nM

CFH67, CCP domains 6 and 7 of complement factor H (from UniProt P08603 321-443) (domain or fragment)
Kd [1]: 28.8 nM | Kd [2]: 9.28 nM | Kd [3]: 3.28 nM | Kd [4]: 23.5 nM | Kd [5]: 4.14 nM | Kd [6]: 13.3 nM | Kd [7]: 1.97 nM | Kd [8]: 19.2 nM | Kd [9]: 0.346 nM | Kd [10]: 6.9 nM | Kd [11]: 6.07 nM | Kd [12]: 3.07 nM | Kd [13]: 8.06 nM | Kd [14]: 30.3 nM | Kd [15]: 7.02 nM | Kd [16]: 33.6 nM | Kd [17]: 4.87 nM | Kd [18]: 10.7 nM | Kd [19]: 4.4 nM | Kd [20]: 6.4 nM | Kd [21]: 25.8 nM | Kd [22]: 4.8 nM | Kd [23]: 12 nM | Kd [24]: 1.91 nM | Kd [25]: 0.401 nM | Kd [26]: 0.514 nM | Kd [27]: 3.95 nM | Kd [28]: 3.36 nM | Kd [29]: 3.62 nM | Kd [30]: 6.81 nM | Kd [31]: 23.9 nM | Kd [32]: 37.5 nM | Kd [33]: 1.07 nM | Kd [34]: 6.77 nM | Kd [35]: 0.157 nM | Kd [36]: 3.06 nM | Kd [37]: 4.14 nM | Kd [38]: 4.4 nM | Kd [39]: 21.1 nM | Kd [40]: 1.97 nM | Kd [41]: 7.45 nM | Kd [42]: 11.7 nM | Kd [43]: 4.35 nM | Kd [44]: 12.3 nM | Kd [45]: 4.29 nM | Kd [46]: 25.8 nM | Kd [47]: 3.46 nM | Kd [48]: 197 nM
